# Measurements reported in the DeepSol protein solubility set.
# Test: soluble on expression in E. coli; label from the status in PepcDB or PDB records
row,Sequence,soluble on expression in E. coli
1,MGSDKIHHHHHHMLLQTKSNEMLLEKVMDEFSAATSLASVVVDIHGTEVSRLCNFTPFCQLIRSNPKYRSLCQKCDMFGGLEASKTGKPLIYRCHAGLTDFSVPIVVENQLSGFLLSGQVICEENSEVGNIQTEETDWKNDKDLISAFRSVPVFSSKKINSSAEMLTIISQYYLKSEMEKSREEQKQKIVFHHNKPTHHEDNKEIRKALKYIEKNLNRPITLDEVASHVYLSSYYFSKLFKKEMNVNFINYVNQKKMSLAKDMLKNPRWSIDNVARNLGFTQTSYFCKVFRKEFDVTPKGYRETLK,not soluble
2,GRFSDELVEACAEMVRQRWNPHPEPTWVCCVPSLRHLDLVPDFARRLAAKLGLPFIDAIEKVVDNPPQKMQQNRFHQCQNLDGAFVITPPLMPGPALLVDDIVDSAWTLTVLTALLRQAGCPTVYPLALASTSVK,not soluble
3,MKNNPLISIYMPTWNRQQLAIRAIKSVLRQDYSNWEMIIVDDCSTSWEQLQQYVTALNDPRITYIHNDINSGACAVRNQAIMLAQGEYITGIDDDDEWTPNRLSVFLAHKQQLVTHAFLYANDYVCQGEVYSQPASLPLYPKSPYSRRLFYKRNIIGNQVFTWAWRFKECLFDTELKAAQDYDIFLRMVVEYGEPWKVEEATQILHINHGEMQITSSPKKFSGYFHFYRKHKDKFDRASKKYQLFTLYQIRNKRMTWRTLLTLLSVRNGKRLADGIRGRLEHHHHHH,soluble
4,MVALQIPSLAATVRQDFPILNQEINGHPLVYLDNAATSQKPRAVLEKLMHYYENDNANVHRGAHQLSVRATDAYEAVRNKVAKFINARSPREIVYTRNATEAINLVAYSWGMNNLKAGDEIITTVMEHHSNLVPWQMVAAKTGAVLKFVQLDEQESFDLEHFKTLLSEKTKLVTVVHISNTLGCVNPAEEIAQLAHQAGAKVLVDACQSAPHYPLDVQLIDCDWLVASGHKMCAPTGIGFLYGKEEILEAMPPFFGGGEMIAEVFFDHFTTGELPHKFEAGTPAIAEAIALGAAVDYLTDLGMENIHNYEVELTHYLWQGLGQIPQLRLYGPNPKHGDRAALASFNVAGLHASDVATMVDQDGIAIRSGHHCTQPLHRLFDASGSARASLYFYNTKEEIDLFLQSLQATIRFFSDDDFTV,soluble
5,MIQQAQFNVQMAEEDRWLTQYPNMEMIVNNKGPKPIFPELNFNITGLEEKSRYVVLLSIQKFDNIRYGFKNGKWGPSKVRHATKKEQEIKYFLHPDGTKLGEELMKETIKFDTVRITNHKKFMDKDNVFFVETMHKYVPVLTVKNITNVESANHSMRMEVAQFFPVTVYNQESIGNWKSKFHKNATFENRLDGGNKRKNTNSREEPSSKRSKNETEIAVLDILQVASQSENYNESTNSGRLQNEISSSIHQFPSTSYQNQYPHAYPTVNTPPIYAQQFPAPFDEKQNQFYPKTDENLAPNCAQDASSLPNFAMNQKASFANQYPYHPYYHQYSQLDHGSPYQYMNNSINSDSSFQSSFSTENSYFDDNGNPIHYPYYPYK,not soluble
6,MDPQGYFLWYQVEMPEDRVNDLARELRIRDNVRRVMVVASTTPGRYEVNIVLNPNLDQSQLALEKEIIQRALENYGARVEKVEELGLRRLAYPIAK,soluble
7,MSRSTFSILPYINRQKVKADGTANILCRITVDGKSAAISTGISCTPQEWNAKKGEVRNARDNGRLASFLDEIKDKYNALLVANGIITVEMLKAVLKDKDTTGRFLLSFGDTIVEWYRTAKARQTFLHKRTWQKNLRDFVHSLDKDDIAFEDIDENFGEEYKLFLKRDQGRIDSYVNHCLLWLNMLMYKAVDRSIIRFNPIAKIGYEKKAAPKMTHISKADFIKMLSTPMADERTELARRCFIFASLTSLSYIDVKKLYPRHISENSEGRKFIRKEREKTGVEFFVPLHPIAEKILSLYNTTDDSKPVFPLGEKKDIYLDVHTLGMVLGISNKLGFHASRHTFGVLMLNEDIPIGSIAKMMGHADITSTQVYAQVTEQKISNDMDKLIAKREMNRLSNEKTIGK,not soluble
8,MDNGWPNLQTLALFVAIVEEGSLGAGARKVGMAQPNASRAIAELEADMKAELLVRHPRGSHPTAAGLALVEHSRDLLQSVQEFTEWVTEGRTEQPLKLHVGASMTIAEALLPAWVADMRTRFPACRVDVSVMNSSQVIEAVQKGHLQLGFIETPHVPVRLHARVVQEDKLIVVISPNHEWANRTGRISLRELSETPLIVREVGSGTREALQELLADYDMAEPIQVLNSNAAVRVVVEAGAGPAVLGELALRDHLALGRLLSVPFEGSGVTRPLTAVWSGPRRLPILAGELVSIASNHI,not soluble
9,YCEFLNNELRAHASDLLPTAPVPTMMLDRAWDEATLHNITQLIYDVRKDDALFRREISKPGAFDLMRKNYWDRREYSAVTLVGNETCNLAPLAELGFQIEVSQ,not soluble
10,MNGLLKYSFPICFSLLALFACEDDGIDVDNIEVPAGFALSAGTATNFLTSSYAYDRSADWITGAYDKRFTRGDKLYDDIRTSSNGIGGGLGPVYAGYSCGSCHRNAGRTQPTLWSEGGSGSSGFSSMLVYISRKNGAFFQDYGRVLHDQAIYGVKPEGKLKVEYTYETFQFPDGETYELCKPNYSIYEWYADSIKPEDLFCTVRIPLRHVGMGQMMALDPTEIEALAAKSNYPEYGISGRCNYISERGMRSLGLSGNKAQHADLTVELGFSSDMGVTNSRYPEEICEGQAQVNQGSMMGLSYAQLDVSTEEMENVDLYMQSLSVPARRNVNNEQVIKGEQNFYKAKCHLCHVTTLHTKPRGSILLNGTRLPWLGSQTIHPYSDFLLHDMGSEIMGVGLNDNYVSGLARGNEWRTTPLWGIGLQETVNGHTYFLHDGRARNYIEAIMWHGGEGEASKNLFKKMSKEDRNALVAFLKSL,not soluble
11,MQYKLILNGKTLKGETTTEAVDAATAEKVFKQYANDNGVDGEWTYDDATKTFTVTEGSMAGGAWGRLACYLEFLKKEELKEFQLLLANKAHSRSSSGETPAQPEKTSGMEVASYLVAQYGEQRAWDLALHTWEQMGLRSLCAQAQEGAGHSLEHHHHHH,soluble
12,MVLGTVLLPPNSYGRDQDTSLCCLCTEASESALPDLTEALHRPYGCDVEPQALNEAIRWSSKENLLGATESDPNLFVALYDFVASGDNTLSITKGEKLRVLGYNQNGEWSEVRSKNGQGWVPSNYITPVNSLEKHSWYHGPVSRSAAEYLLSSLINGSFLVRESESSPGQLSISLRYEGRVYHYRINTTADGKVYVTAESRFSTLAELVHHHSTVADGLVTTLHYPAPKCNKPTVYGVSPIHDKWEMERTDITMKHKLGGGQYGEVYVGVWKKYSLTVAVKTLKEDTMEVEEFLKEAAVMKEIKHPNLVQLLGVCTLEPPFYIVTEYMPYGNLLDYLRECNREEVTAVVLLYMATQISSAMEYLEKKNFIHRDLAARNCLVGENHVVKVADFGLSRLMTGDTYTAHAGAKFPIKWTAPESLAYNTFSIKSDVWGKVERDFFLCHFIFFFINALIL,soluble
13,MQYLEKKEIKEIQLALLDYIDETCKKHDIPYFLSYGTMLGAIRHKGMIPWDDDIDISLYREDYERLLKIIEEENHPRYKVLSYDTSSWYFHNFASILDTSTVIEDHVKYKRHDTSLFIDVFPIDRFTDLSIVDKSYKYVALRQLAYIKKSRAVHGDSKLKDFLRLCSWYALRFVNPRYFYKKIDQLVKNAVTNTPQYEGGVGIGKEGMKEIFPVDTFKELILTEFEGRMLPVPKKYDQFLTQMYGDYMTPPSKEMQEWYSHSIKAYRKNLEHHHHHH,soluble
14,MSLLLFQSLLRRGLLVAINFSPKVGEILECNFGNYPVSQNGPFSTTYYDGRIPPEMIKNRLVVVLNGKINGNAFIVVPLSTTRDHDKLKRGMHVEIASNVINDLQFFDQQIRWAKTDLVQQVSRNRLNRARTYRGYLNQCLPHELVADIQRAVIKSINAISLINEGHHHHHH,not soluble
15,MEIATRLKMNVKEQTEVILTNFTKMLFRRKLIKDQQSLLNKLKNIDTKDIYHFKENDMNFLLIITFQKLNGIKKGSEIEEQLIKSKGYNFIIASQSSNKTYQQVKNFKGELFLTLEFLSDIPSLPFVPEHILLSEKEKEEILSVYKEKNIAKIFVTDMMARYLGAKKGDLIKIIRKTLNTGESIYYRRVF,not soluble
16,MSLSYLPGTTFEGQWESLYFGNNIKERLYSYATISLKIARFKQTGDSNQEDITTLITNNKLLLVHGPPGTGKTTLCKALCQKLSVRREFSDGSDTIDTNYKGIIIELSCARIFSKWFGESSKNISIVFKDIEELLKVNEGRGIFICLLIDEVEAIASSRTNLSSRNESTDGIRVVNTLLTQLDRLKKYHNFLALATSNLLDSLDDAFVDRADGVFYVGNPTAEGILHILKVCIEEMITSGIILFHARSTGVKFFNKYQDILRKIAIKCSVCFFLLFYFYDSFSFFPSEGHHHHHH,soluble
17,MTAIPASARIVLDTEIPARVPWSAIIRKGQTLRIVDSHGQQAVDTLFYAADDHGERYSGQDTLRAQGSAYVTTGTRIMSTEGRTMLRMVADSCGLHDTSAGACSCESNTVRFGHQTKYLHACRENFVLEAAKHGLSKRDIVPNLNFFMNVPLDPDGNFTVVDGVSKPGDYVEMVAEMDVLCLISNCPQVNNPCNGFFPTPIQVVIYEAGEDLEHHHHHH,soluble
18,GPGSMTDDSSGLQSELSHALEGEGNLSVDAMLSQSLVKADLQTPSARILLKKIERPPGRFDLLTNSLVYSWQTTAAQARKVTGPMREWASELKYRTGVHLEVEPTNPTRLGVPEEEGGYAAADDVELTVYLFGSERGIFNCRQLMETALDQNPAYVRLAVFRRRPGKGVSTSTAAVPRPQEDVEWLLLRRINRDLRPPDIPPISLKTPGKWTLLYEQYKEAAIRTLWEETGITVEAGNVYPTAVLCQDNPIYYWRVPVHYFLAEVPYDVQVLGPQVGLNTYMHHWDSSLLRQSPDPIDRAWAQLADPETGCAWMKQPMIDELQRPLRGENYMATRYTPPPYSQLNHALGLAVPAEAAGEASAADSALSAATTAEGGEAQDDVKEDDAAAPSADADASSSNDKPSS,soluble
19,MQKINDAGELAKHSVVVTTFDTIKTLMNFQTLQKISFERIIIYDAYPIDNTDTQRYKALRQLDATYRWVLTGNLLQQNLANFLKLGEYGDDQLWDTQICPILEGKQCDEKTELSKKIENLLKSVELKFPLENYREMEVGADDSQ,not soluble
20,QGMNNPADAGINLNYLANVRPSSRQLAWQRMEMYAFLHFGMNTMTDREWGLGHEDPALFNPRNVDVDQWMDALVAGGMAGVILTCKHHDGFCLWPSRLTRHTVASSPWREGKGDLVREVSESARRHGLKFGVYLSPWDRTEESYGKGKAYDDFYVGQLTELLTQYGPIFSVWLDGANGEGKNGKTQYYDWDRYYNVIRSLQPDAVISVCGPDVRWAGNEAGHVRDNEWSVVPRRLRSAELTMEKSQQEDDASFATTVSSQDDDLGSREAVAGYGDNVCWYPAEVDTSIRPGWFYHQSEDDKVMSADQLFDLWLSAVGGNSSLLLNIPPSPEGLLAEPDVQSLKGLGRRVSEFREALASVRCEARTSSASAAAAHLVDGNRDTFWRPDADDAAPAITLTLPQPTTINAIVIEEAIEHGQRIEHLRVTGALPDGTERVLGQAGTVGYRRILRFDDVEVSSVTLHVDGSRLAPMISRAAAVRI,soluble
21,MGSDKIHHHHHHMNWESTPVLMLTPFHHMQRGNTLTTLRLQTALRQRGFTVDLLSLEEKGWRDSLREYLINGKYSLVHGFNARYFGGVLTEFPELRNLPLILTTTGSDLNYDLKNSGRDLVLAAFAAAEKIIVFHDYFQKLIGDAYPEYCSKLSTIPQGVWLEESPPIKREMIGLAADNIVFALPSGLRPVKDIELAIDGLQRVYKDFPELRLLIIGPVIDRDYGQKIKQRVSELNWVFYLGEVLHSDMGNYLSLADVILNTSQAEGQPQGLLEGMSQNKPAILTAVPGNLDIIEEGRQGYYVRNQEELAVAARKMLSSAESRQRMGWEAGKLVKEKFSLAREIQSYAELYRQVLSP,not soluble
